Values joined by “and” are separate entries in the source; they are usually repeats but may differ in a detail not shown here. Identical values can stand only once. One block for each molecule: values may come before it. Where no end group is shown, it is not given here.
Key:
[1] = target: MC3-R (mouse arcuate nucleus) (mouse) (UniProt P33033); experiment: cell-based or functional assay
[2] = target: µ opioid receptor (MOP-R) on mouse POMC neurons (mouse) (UniProt P42866); experiment: cell-based or functional assay
UniProt P42866, sequence (P42866 whole entry): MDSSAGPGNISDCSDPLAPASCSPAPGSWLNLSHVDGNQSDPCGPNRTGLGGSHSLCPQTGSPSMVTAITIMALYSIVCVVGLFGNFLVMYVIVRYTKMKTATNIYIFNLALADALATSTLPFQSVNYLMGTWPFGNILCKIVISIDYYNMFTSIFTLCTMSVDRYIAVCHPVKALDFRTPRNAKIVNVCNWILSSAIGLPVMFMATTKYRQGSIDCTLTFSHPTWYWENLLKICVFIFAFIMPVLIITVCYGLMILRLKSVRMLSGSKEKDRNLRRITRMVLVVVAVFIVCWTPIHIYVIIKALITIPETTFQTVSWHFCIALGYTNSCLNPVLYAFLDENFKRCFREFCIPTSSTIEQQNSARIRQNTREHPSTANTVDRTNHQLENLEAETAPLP

[3] = target: T1, NPY Y2 receptor (on cell lines expressing it); experiment: receptor-binding studies on cell lines expressing the NPY Y2 receptor; labelled ligand not named
T1 sequence (P49146 whole entry, species assumed, looked up): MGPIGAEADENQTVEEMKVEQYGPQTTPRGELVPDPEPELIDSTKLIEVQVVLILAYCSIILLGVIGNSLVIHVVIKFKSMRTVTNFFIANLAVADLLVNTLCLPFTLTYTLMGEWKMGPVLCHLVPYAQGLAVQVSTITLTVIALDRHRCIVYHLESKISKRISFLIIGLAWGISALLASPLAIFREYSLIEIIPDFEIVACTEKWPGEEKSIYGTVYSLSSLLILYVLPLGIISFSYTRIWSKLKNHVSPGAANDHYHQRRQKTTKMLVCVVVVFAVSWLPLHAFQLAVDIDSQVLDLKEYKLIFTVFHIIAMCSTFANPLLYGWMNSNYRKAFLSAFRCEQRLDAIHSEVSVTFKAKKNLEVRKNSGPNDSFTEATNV

UniProt P33033, sequence (P33033 whole entry): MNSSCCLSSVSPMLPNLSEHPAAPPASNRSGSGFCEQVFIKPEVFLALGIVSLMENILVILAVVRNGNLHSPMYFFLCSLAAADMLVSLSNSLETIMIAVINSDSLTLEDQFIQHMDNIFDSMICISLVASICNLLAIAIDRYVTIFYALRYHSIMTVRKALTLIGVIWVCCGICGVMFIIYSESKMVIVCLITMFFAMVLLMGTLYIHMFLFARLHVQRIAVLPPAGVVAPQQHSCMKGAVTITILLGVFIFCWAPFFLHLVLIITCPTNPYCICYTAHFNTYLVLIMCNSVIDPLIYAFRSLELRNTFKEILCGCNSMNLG

frequency of GABAergic IPSCs recorded from POMC neurons [1]: 280%
Molecule: D-Trp^8-γMSH (peptide)

hyperpolarization of the membrane potential of POMC cells (whole cell recording, mouse slices) [2]: 10 mV and 20 mV
Molecule: met-enkephalin (peptide)

IC50 [3]: 1.3 nM
Molecule: Ac-LRHYLNLLTRQRY (ends and bridges not checked) [N-acetyl (Leu^28, Leu^31) NPY (24-36)]
